Assay results taken from US20050037949A1, “Mannose binding lectin and uses thereof” (priority 2002, published 2005).
Where two headings read alike, the source gives them in different places.

Legend:
[1] = biological target: MBL associated serine protease 2 (MASP2) (human) (UniProt O00187); assay: cell-based or functional assay
[2] = biological target: MBL associated serine protease 2 (MASP2) (human) (UniProt O00187); assay: cell-based or functional assay; remark: listed apart in the source

affinity purified MBL-MASP complex, sequence (P11226 21-248, one chain of several): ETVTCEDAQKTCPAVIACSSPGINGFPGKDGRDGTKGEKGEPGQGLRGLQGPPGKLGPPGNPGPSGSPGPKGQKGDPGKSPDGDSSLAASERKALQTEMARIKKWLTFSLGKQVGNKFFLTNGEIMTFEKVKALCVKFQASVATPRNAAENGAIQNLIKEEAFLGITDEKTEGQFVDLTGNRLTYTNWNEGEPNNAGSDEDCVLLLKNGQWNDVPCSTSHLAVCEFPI
MBL associated serine protease 2 (MASP2) (human), sequence (O00187 16-686 limits assumed): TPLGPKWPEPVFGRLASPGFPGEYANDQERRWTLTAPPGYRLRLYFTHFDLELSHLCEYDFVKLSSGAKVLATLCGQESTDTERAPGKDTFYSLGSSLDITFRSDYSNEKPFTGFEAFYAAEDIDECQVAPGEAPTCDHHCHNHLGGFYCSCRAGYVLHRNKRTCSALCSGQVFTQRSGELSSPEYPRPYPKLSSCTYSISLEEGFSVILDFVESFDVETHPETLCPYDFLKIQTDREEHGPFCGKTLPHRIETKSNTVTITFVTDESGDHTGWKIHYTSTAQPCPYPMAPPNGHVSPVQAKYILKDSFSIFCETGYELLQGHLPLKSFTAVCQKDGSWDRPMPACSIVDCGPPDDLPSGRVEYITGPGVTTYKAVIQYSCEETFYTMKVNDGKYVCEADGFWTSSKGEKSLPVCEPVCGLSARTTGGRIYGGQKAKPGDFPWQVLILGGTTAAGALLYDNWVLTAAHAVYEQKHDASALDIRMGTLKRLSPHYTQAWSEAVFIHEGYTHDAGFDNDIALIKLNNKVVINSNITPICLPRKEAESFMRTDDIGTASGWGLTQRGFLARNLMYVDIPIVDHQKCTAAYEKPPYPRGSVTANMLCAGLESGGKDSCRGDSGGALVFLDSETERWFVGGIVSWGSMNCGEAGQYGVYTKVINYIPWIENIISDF

**Q.** “affinity purified MBL-MASP complex (from UniProt P11226 21-248)” was tested. Which C4 deposition at MBL 0.471 ug/mL [1] did it give?
**A.** 0.054 U/ul

**Q.** What about the C4 deposition at MBL 1.065 ug/mL [1] of the same substance?
**A.** 0.057 U/ul

**Q.** And the C4 deposition at MBL 2.237 ug/mL [1]?
**A.** 0.104 U/ul

**Q.** What about the C4 deposition at MBL 2.802 ug/mL [1] of the same substance?
**A.** 0.114 U/ul

**Q.** And the C4 deposition at MBL 4.011 ug/mL [1]?
**A.** 0.138 U/ul

**Q.** What about the C4 deposition at MBL 4.681 ug/mL [1] of the same substance?
**A.** 0.171 U/ul

**Q.** What about the C4 deposition at MBL 5.382 ug/mL [1] of the same substance?
**A.** 0.159 U/ul

**Q.** And the C4 deposition at MBL 6.814 ug/mL [1]?
**A.** 0.19 U/ul

**Q.** And the C4 deposition at MBL 7.967 ug/mL [1]?
**A.** 0.203 U/ul

**Q.** And the C4 deposition at MBL 10.998 ug/mL [1]?
**A.** 0.22 U/ul

**Q.** And the C4 deposition at MBL 40 ug/mL [1]?
**A.** 0.292 U/ul

**Q.** And the C4 deposition at MBL 50 ug/mL [1]?
**A.** 0.308 U/ul

**Q.** And the C4 deposition at MBL 0.624 ug/mL [2]?
**A.** 0.05 U/ul

**Q.** What about the C4 deposition at MBL 1.032 ug/mL [2] of the same substance?
**A.** 0.068 U/ul

**Q.** What about the C4 deposition at MBL 2.081 ug/mL [2] of the same substance?
**A.** 0.103 U/ul

**Q.** What about the C4 deposition at MBL 3.3 ug/mL [2] of the same substance?
**A.** 0.197 U/ul

**Q.** What about the C4 deposition at MBL 4.08 ug/mL [2] of the same substance?
**A.** 0.138 U/ul

**Q.** And the C4 deposition at MBL 4.42 ug/mL [2]?
**A.** 0.168 U/ul

**Q.** And the C4 deposition at MBL 5.95 ug/mL [2]?
**A.** 0.172 U/ul

**Q.** What about the C4 deposition at MBL 6.94 ug/mL [2] of the same substance?
**A.** 0.197 U/ul

**Q.** What about the C4 deposition at MBL 11.41 ug/mL [2] of the same substance?
**A.** 0.204 U/ul

**Q.** What about the C4 deposition at MBL 15 ug/mL [2] of the same substance?
**A.** 0.246 U/ul

**Q.** And the C4 deposition at MBL 25 µg/mL (previous assay, same batch) [2]?
**A.** 0.27 U/µl

**Q.** And the C4 deposition at MBL 40 ug/mL [2]?
**A.** 0.321 U/ul

**Q.** What about the C4 deposition at MBL 50 ug/mL [2] of the same substance?
**A.** 0.289 U/ul
